Experimental data from patent publication US20120316071A1 (published 2012).
Residue numbers refer to the chain shown, from its start. Names and notes keep the numbering of the source.

B1: Fab VH5-51_IGHD5-18*01>3_IGHJ4*01 G100K/G104T (H:KT) & V3-4_IGLJ1*01 (wildtype light chain) (Fab, V domains shown)
VH: EVQLVQSGAEVKKPGESLKISCKGSGYSFTSYWIGWVRQMPGKGLEWMGIIYPGDSDTRYSPSFQGQVTISADKSISTAYLQWSSLKASDTAMYYCARRKYSYTYDYFDYWGQGTLVTVSS
VL: QTVVTQEPSFSVSPGGTVTLTCGLSSGSVSTSYYPSWYQQTPGQAPRTLIYSTNTRSSGVPDRFSGSILGNKAALTITGAQADDESDYYCVLYMGSGISYVFGTGTKVTVL
notes: Fab made in E. coli; VH was cloned into Plasmid A (CH1, His6 and Flag tags) and lambda VL into Plasmid E (lambda CL); also called H:KT & L:wt; KT double mutant
B2: Fab VH5-51_IGHD5-18*01>3_IGHJ4*01 G100K/G104T (H:KT) & V3-4_IGLJ1*01 S52A (Fab, V domains shown)
VH: B1 VH
VL: B1 VL with S52A
notes: Fab (CH1 with His6/Flag tags from Plasmid A, lambda CL from Plasmid E); also called G100K/G104T & S52A
B3: Fab VH5-51_IGHD5-18*01>3_IGHJ4*01 G100K/G104T (H:KT) & V3-4_IGLJ1*01 N54A (Fab, V domains shown)
VH: B1 VH
VL: B1 VL with N54A
notes: Fab (CH1 with His6/Flag tags from Plasmid A, lambda CL from Plasmid E); also called G100K/G104T & N54A
B4: Fab VH5-51_IGHD5-18*01>3_IGHJ4*01 G100K/G104T (H:KT) & V3-4_IGLJ1*01 S58A (Fab, V domains shown)
VH: B1 VH
VL: B1 VL with S58A
notes: Fab (CH1 with His6/Flag tags from Plasmid A, lambda CL from Plasmid E); also called G100K/G104T & S58A
B5: Fab VH5-51_IGHD5-18*01>3_IGHJ4*01 G100K/G104T (H:KT) & V3-4_IGLJ1*01 S57A (Fab, V domains shown)
VH: B1 VH
VL: B1 VL with S57A
notes: Fab (CH1 with His6/Flag tags from Plasmid A, lambda CL from Plasmid E); also called G100K/G104T & S57A
B6: Fab VH5-51_IGHD5-18*01>3_IGHJ4*01 G100K/G104T (H:KT) & V3-4_IGLJ1*01 T53A (Fab, V domains shown)
VH: B1 VH
VL: B1 VL with T53A
notes: Fab (CH1 with His6/Flag tags from Plasmid A, lambda CL from Plasmid E); also called G100K/G104T & T53A
B7: Fab VH5-51_IGHD5-18*01>3_IGHJ4*01 G100K/G104T (H:KT) & V3-4_IGLJ1*01 T55A (Fab, V domains shown)
VH: B1 VH
VL: B1 VL with T55A
notes: Fab (CH1 with His6/Flag tags from Plasmid A, lambda CL from Plasmid E); also called G100K/G104T & T55A
B8: Fab VH3-23_IGHD2-21*01>3_IGHJ6*01 H100E/S108P/Y113G (EPG) & V2-13_IGLJ2*01 (Fab, V domains shown)
VH: not shown
VL: SSELTQDPAVSVALGQTVRITCQGDSLRSYYASWYQQKPGQAPVLVIYGKNNRPSGIPDRFSGSSSGNTASLTITGAQAEDEADYYCNSRDSSGNHLVVFGGGTKLTVL
notes: Fab; CH1 (His and Flag tags) and lambda CL come from the expression vectors; also called H:EPG
B9: Fab VH3-23_IGHD2-21*01>3_IGHJ6*01 H100E/S108P/Y113G (EPG) Y109W & V2-13_IGLJ2*01 (Fab, V domains shown)
VH: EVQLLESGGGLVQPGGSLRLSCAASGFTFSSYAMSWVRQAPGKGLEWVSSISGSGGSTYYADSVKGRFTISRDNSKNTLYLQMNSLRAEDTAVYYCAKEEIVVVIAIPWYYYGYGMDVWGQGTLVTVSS
VL: B8 VL
notes: Fab; NNK mutant of the EPG heavy chain; CH1 (tags) and lambda CL come from the vectors
B10: Fab VH3-23_IGHD2-21*01>3_IGHJ6*01 H100E/S108P/Y113G Y110S & V2-13_IGLJ2*01 (Fab, V domains shown)
VH: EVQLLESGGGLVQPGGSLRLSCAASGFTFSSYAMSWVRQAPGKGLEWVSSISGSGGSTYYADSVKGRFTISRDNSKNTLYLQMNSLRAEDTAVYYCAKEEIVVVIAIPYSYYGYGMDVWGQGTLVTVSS
VL: B8 VL
notes: Tested as Fab made in E. coli: VH joined to CH1 (His and Flag tags), VL joined to lambda CL; also called EPG Y110S
B11: Fab VH3-23_IGHD2-21*01>3_IGHJ6*01 H100E/S108P/Y113G Y109G & V2-13_IGLJ2*01 (Fab, V domains shown)
VH: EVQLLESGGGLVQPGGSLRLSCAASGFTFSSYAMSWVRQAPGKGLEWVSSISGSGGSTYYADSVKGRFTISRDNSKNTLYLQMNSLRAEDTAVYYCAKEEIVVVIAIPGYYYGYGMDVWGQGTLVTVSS
VL: B8 VL
notes: Tested as Fab made in E. coli: VH joined to CH1 (His and Flag tags), VL joined to lambda CL; also called EPG Y109G
B12: Fab VH3-23_IGHD2-21*01>3_IGHJ6*01 H100E/S108P/Y113G Y109R & V2-13_IGLJ2*01 (Fab, V domains shown)
VH: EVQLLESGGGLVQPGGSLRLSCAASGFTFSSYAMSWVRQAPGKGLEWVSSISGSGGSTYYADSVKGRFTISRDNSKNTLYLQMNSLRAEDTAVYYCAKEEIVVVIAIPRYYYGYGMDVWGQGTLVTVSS
VL: B8 VL
notes: also called EPG Y109R
B13: Fab VH3-23_IGHD2-21*01>3_IGHJ6*01 H100E/S108P/Y113G Y110N & V2-13_IGLJ2*01 (Fab, V domains shown)
VH: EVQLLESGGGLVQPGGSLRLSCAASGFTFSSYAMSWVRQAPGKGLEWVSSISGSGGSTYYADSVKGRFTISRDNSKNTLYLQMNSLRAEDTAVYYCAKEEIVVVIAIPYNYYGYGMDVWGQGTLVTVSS
VL: B8 VL
notes: Tested as Fab made in E. coli: VH joined to CH1 (His and Flag tags), VL joined to lambda CL; also called EPG Y110N
B14: Fab VH3-23_IGHD2-21*01>3_IGHJ6*01 H100E/S108P/Y113G Y110H & V2-13_IGLJ2*01 (Fab, V domains shown)
VH: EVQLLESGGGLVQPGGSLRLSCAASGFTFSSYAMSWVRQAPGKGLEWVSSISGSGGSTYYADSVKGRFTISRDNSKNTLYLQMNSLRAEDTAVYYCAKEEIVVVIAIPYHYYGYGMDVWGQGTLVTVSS
VL: B8 VL
notes: Tested as Fab made in E. coli: VH joined to CH1 (His and Flag tags), VL joined to lambda CL; also called EPG Y110H
B15: Fab VH3-23_IGHD2-21*01>3_IGHJ6*01 H100E/S108P/Y113G Y110P & V2-13_IGLJ2*01 (Fab, V domains shown)
VH: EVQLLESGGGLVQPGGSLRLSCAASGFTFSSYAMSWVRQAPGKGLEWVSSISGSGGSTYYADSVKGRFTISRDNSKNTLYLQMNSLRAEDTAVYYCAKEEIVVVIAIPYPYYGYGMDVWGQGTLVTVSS
VL: B8 VL
notes: Tested as Fab made in E. coli: VH joined to CH1 (His and Flag tags), VL joined to lambda CL; also called EPG Y110P

target: T1, Recombinant Human DLL4 (delta-like protein 4) (human, UniProt Q9NR61 27-524); assay: ECL (MSD) multispot binding assay, Fab on immobilised recombinant human DLL4
T1 construct: also called rHuman DLL4; Delta-like 4

Binder | ECL signal
B1 | 9360
B2 | 15200
B3 | 12900
B4 | 12600
B5 | 12600
B6 | 13200
B7 | 12700

target: T2, rHuman IGF-1 sR, (IGF-1 sR), CF (R&D Systems Cat#391-GR) (human, UniProt P08069 31-932); assay: ECL multispot (MSD), 20 nM Fab;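 further: purified Fab binding to antigens on multispot plates, read by electrochemiluminescence with a TAG-labelled detection antibody, 1 h Fab incubation at 20 °C, signal expressed relative to each well's blank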
T2 construct: Bought recombinant soluble receptor; also called insulin-like growth factor-1 soluble receptor

Binder | ECL signal ratio (column head gives no unit)
B8 | 1.7
B9 | 1.5

target: T3, rHuman EGF R/Fc Chimera, CF (R&D Systems Cat#344-ER) (human, UniProt P00533 25-645); assay: ECL multispot (MSD), 20 nM Fab;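 further: purified Fab binding to antigens on multispot plates, read by electrochemiluminescence with a TAG-labelled detection antibody, 1 h Fab incubation at 20 °C, signal expressed relative to each well's blank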
T3 construct: Bought recombinant protein; also called epidermal growth factor receptor; Fc part of the bought chimera not given

Binder | ECL signal ratio (column head gives no unit)
B8 | 8.4
B9 | 11.1

target: T4, rHuman CD44/Fc Chimera, CF (R&D Systems Cat#3660-CD) (human, UniProt P16070 21-220); assay: ECL multispot (MSD), 20 nM Fab;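 further: purified Fab binding to antigens on multispot plates, read by electrochemiluminescence with a TAG-labelled detection antibody, 1 h Fab incubation at 20 °C, signal expressed relative to each well's blank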
T4 construct: Bought recombinant protein; Fc part of the bought chimera not given

Binder | ECL signal ratio (column head gives no unit)
B8 | 1.7

target: T5, rHuman ErbB2/Fc Chimera, CF (R&D Systems Cat#1129-ER) (human, UniProt P04626 23-652); assay: ECL multispot (MSD), 20 nM Fab;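 further: purified Fab binding to antigens on multispot plates, read by electrochemiluminescence with a TAG-labelled detection antibody, 1 h Fab incubation at 20 °C, signal expressed relative to each well's blank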
T5 construct: Bought recombinant protein; also called human epidermal growth factor 2 receptor; Fc part of the bought chimera not given

Binder | ECL signal ratio (column head gives no unit)
B8 | 11.7
B9 | 16.1

target: T6, rHuman P-Cadherin/Fc Chimera, CF (R&D Systems Cat#861-PC) (human, UniProt P22223 108-654); assay: ECL multispot (MSD), 20 nM Fab
T6 construct: Bought recombinant protein; Fc part of the bought chimera not given

Binder | ECL signal ratio (column head gives no unit)
B9 | 32

target: T7, rHuman Erythropoietin R/Fc Chimera, CF (R&D Systems Cat#963-ER) (human, UniProt P19235 25-250); assay: ECL multispot (MSD), 20 nM Fab
T7 construct: Bought recombinant protein; also called EPO R; EPO R/Fc; Fc part of the bought chimera not given
T7 sequence (looked up): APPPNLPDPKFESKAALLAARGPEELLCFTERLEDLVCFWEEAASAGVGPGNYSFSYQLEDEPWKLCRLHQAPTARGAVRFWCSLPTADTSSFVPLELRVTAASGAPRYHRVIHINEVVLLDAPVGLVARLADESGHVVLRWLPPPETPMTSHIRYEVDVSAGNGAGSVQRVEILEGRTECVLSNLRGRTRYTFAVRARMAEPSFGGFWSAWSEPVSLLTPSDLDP

Binder | ECL signal ratio (column head gives no unit)
B9 | 169

target: T8, rHuman Notch-1/Fc Chimera, CF (R&D Systems Cat#3647-TK) (human, UniProt P46531 19-526); assay: ECL multispot (MSD) binding assay, antigens spotted on plate, 20 nM Fab;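 further: fab incubated 1 h at 20 °C on antigen-spotted wells, bound Fab detected by TAG-labelled antibody, ratio of 4 or more over blank counted as a hit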
T8 construct: Bought recombinant protein; Fc part of the bought chimera not given

Binder | ECL multispot signal (ratio to blank; column not labelled)
B10 | 0.8
B11 | 1.5
B12 | 1.4
B13 | 1.3
B14 | 1.4
B15 | 1.1

target: T9, Recombinant Human DLL4 (R&D Systems Cat#1506-D4/CF) (human, UniProt Q9NR61 27-524); assay: as above
T9 construct: Bought recombinant protein; also called delta-like protein 4; rHuman DLL4

Binder | ECL multispot signal (ratio to blank; column not labelled)
B10 | 1.2
B11 | 1.9
B12 | 1.5
B13 | 1.2
B14 | 1.9
B15 | 1.4

target: T10, rHuman P-Cadherin/Fc Chimera, CF (R&D Systems Cat#861-PC) (human, UniProt P22223 108-654); assay: as above
T10 construct: Bought recombinant protein; Fc part of the bought chimera not given

Binder | ECL multispot signal (ratio to blank; column not labelled)
B10 | 1.9
B12 | 7.4
B13 | 1.2
B15 | 1.7

target: T11, rHuman IGF-1 sR, (IGF-1 sR), CF (R&D Systems Cat#391-GR) (human, UniProt P08069 31-932); assay: as above
T11 construct: Bought recombinant soluble receptor; The column head prints only 'IGF-1'; also called insulin-like growth factor-1 soluble receptor

Binder | ECL multispot signal (ratio to blank; column not labelled)
B10 | 1.1
B11 | 1.6
B12 | 1.3
B13 | 0.9
B14 | 1.3
B15 | 1.2

target: T12, rHuman CD44/Fc Chimera, CF (R&D Systems Cat#3660-CD) (human, UniProt P16070 21-220); assay: as above
T12 construct: Bought recombinant protein; Fc part of the bought chimera not given

Binder | ECL multispot signal (ratio to blank; column not labelled)
B10 | 1
B11 | 1.5
B12 | 1
B13 | 0.8
B14 | 1.4
B15 | 1.2

target: T13, rHuman ErbB2/Fc Chimera, CF (R&D Systems Cat#1129-ER) (human, UniProt P04626 23-652); assay: as above
T13 construct: Bought recombinant protein; also called human epidermal growth factor 2 receptor; Fc part of the bought chimera not given

Binder | ECL multispot signal (ratio to blank; column not labelled)
B10 | 1
B11 | 1.4
B12 | 2
B13 | 1.2
B14 | 2.2
B15 | 0.9

target: T14, rHuman Erythropoietin R/Fc Chimera, CF (R&D Systems Cat#963-ER) (human, UniProt P19235 25-250); assay: as above
T14 construct: Bought recombinant protein; also called EPO R; Epo R; Fc part of the bought chimera not given
T14 sequence (looked up): T7 sequence (looked up)

Binder | ECL multispot signal (ratio to blank; column not labelled)
B10 | 4.5
B11 | 11.1
B12 | 30.1
B13 | 1.6
B15 | 2.9

target: T15, rHuman EGF R/Fc Chimera, CF (R&D Systems Cat#344-ER) (human, UniProt P00533 25-645); assay: as above
T15 construct: Bought recombinant protein; also called epidermal growth factor receptor; Fc part of the bought chimera not given

Binder | ECL multispot signal (ratio to blank; column not labelled)
B10 | 1.3
B11 | 2
B12 | 1.8
B13 | 0.9
B14 | 1.7
B15 | 1.1
